Key:
[1] = target: the molecule itself; assay: molecular brightness from raster image correlation spectroscopy (RICS); live HEK293 cells, confocal, 37 °C, bottom membrane; clusters masked out by intensity thresholding; brightness of eGFP compared with eGFP5 and Lyn-eGFP references
[2] = target: GlyR-α3K-mCherry (glycine receptor α3 subunit, short splice variant K, N-terminally tagged with mCherry) (mouse); assay: subunit counting by stepwise photobleaching (TIRF microscopy); fixed HEK293 cells with low copy number expression (50 ng GlyR-α3L-eGFP, 0-500 ng GlyR-α3K-mCherry); eGFP bleaching steps per diffraction-limited spot, step histogram fitted with binomial models; room temperature

B1: GlyR-α3L-eGFP (glycine receptor α3 subunit, long splice variant L, N-terminally tagged with eGFP) (receptor, mouse, UniProt Q91XP5 34-464, looked up)
chain: ARSRSAPMSPSDFLDKLMGRTSGYDARIRPNFKGPPVNVTCNIFINSFGSIAETTMDYRVNIFLRQKWNDPRLAYSEYPDDSLDLDPSMLDSIWKPDLFFANEKGANFHEVTTDNKLLRIFKNGNVLYSIRLTLTLSCPMDLKNFPMDVQTCIMQLESFGYTMNDLIFEWQDEAPVQVAEGLTLPQFLLKEEKDLRYCTKHYNTGKFTCIEVRFHLERQMGYYLIQMYIPSLLIVILSWVSFWINMDAAPARVALGITTVLTMTTQSSGSRASLPKVSYVKAIDIWMAVCLLFVFSALLEYAAVNFVSRQHKELLRFRRKRKNKTEAFALEKFYRFSDTDDEVRESRFSFTAYGMGPCLQAKDGVVPKGPNHAVQVMPKSPDEMRKVFIDRAKKIDTISRACFPLAFLIFNIFYWVIYKILRHEDIHQQQD
notes: Glycine receptor subunit alpha-3, mouse, splice variant L (464 residues); The receptor assembles as a pentamer; the molecule here is the subunit; also called L variant; GlyR-α3L-FP; source: HEK293, transiently transfected (calcium phosphate; truncated CMV promoter), in the membrane of live or fixed cells; not shown: eGFP, N-terminal, kept
stoichiometry N [1]: 5 | heteropentameric fraction (2nd order binomial fit) [2]: 23% | heteropentameric fraction (3rd order binomial fit) [2]: 36% | heteropentameric fraction (4th order binomial fit) [2]: 67%

Reference: article PMC9534812, “Hetero-pentamerization determines mobility and conductance of Glycine receptor α3 splice variants” (Cellular and Molecular Life Sciences, 2022)
